{
  "source": "patent US5831013",
  "about": "“Capsid polypeptides and use to inhibit viral packaging” (The Research Foundation of State University of New York, dated 1998)",
  "data": [
    {"target": "T1, ScVLa capsid protein Cap, full size (697 amino acids) (ScVLa virus of Saccharomyces cerevisiae)", "T1 chain": "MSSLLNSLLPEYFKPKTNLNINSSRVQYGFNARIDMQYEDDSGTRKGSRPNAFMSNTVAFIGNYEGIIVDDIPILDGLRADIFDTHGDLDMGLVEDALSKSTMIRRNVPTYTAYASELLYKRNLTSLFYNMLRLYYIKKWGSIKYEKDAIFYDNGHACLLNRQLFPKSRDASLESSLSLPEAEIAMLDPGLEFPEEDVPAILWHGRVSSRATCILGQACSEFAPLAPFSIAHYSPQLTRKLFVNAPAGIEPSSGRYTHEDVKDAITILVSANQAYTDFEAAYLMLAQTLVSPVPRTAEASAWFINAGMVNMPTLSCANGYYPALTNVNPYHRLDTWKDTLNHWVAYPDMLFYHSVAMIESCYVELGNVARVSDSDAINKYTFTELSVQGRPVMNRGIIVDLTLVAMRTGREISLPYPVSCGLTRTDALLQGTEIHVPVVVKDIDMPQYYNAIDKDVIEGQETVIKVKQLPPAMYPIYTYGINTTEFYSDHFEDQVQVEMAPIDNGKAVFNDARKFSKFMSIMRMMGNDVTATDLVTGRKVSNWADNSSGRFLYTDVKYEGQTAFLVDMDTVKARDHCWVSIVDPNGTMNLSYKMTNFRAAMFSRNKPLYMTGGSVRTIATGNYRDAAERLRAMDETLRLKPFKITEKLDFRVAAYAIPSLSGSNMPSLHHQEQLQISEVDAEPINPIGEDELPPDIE", "assay": "cell-based or functional assay", "units": {"Curing (%) of ScVLa": "%"}, "values": [
      {"binder": "La Cap N-terminal fragment of pGLa1d4 (aa 1-428) (other) MSSLLNSLLPEYFKPKTNLNINSSRVQYGFNARIDMQYEDDSGTRKGSRPNAFMSNTVAFIGNYEGIIVDDIPILDGLRADIFDTHGDLDMGLVEDALSKSTMIRRNVPTYTAYASELLYKRNLTSLFYNMLRLYYIKKWGSIKYEKDAIFYDNGHACLLNRQLFPKSRDASLESSLSLPEAEIAMLDPGLEFPEEDVPAILWHGRVSSRATCILGQACSEFAPLAPFSIAHYSPQLTRKLFVNAPAGIEPSSGRYTHEDVKDAITILVSANQAYTDFEAAYLMLAQTLVSPVPRTAEASAWFINAGMVNMPTLSCANGYYPALTNVNPYHRLDTWKDTLNHWVAYPDMLFYHSVAMIESCYVELGNVARVSDSDAINKYTFTELSVQGRPVMNRGIIVDLTLVAMRTGREISLPYPVSCGLTRTDAL", "Curing (%) of ScVLa": 50},
      {"binder": "La Cap N-terminal fragment of nonsense mutant pGLa1m4 (I443O, aa 1-442) (other) MSSLLNSLLPEYFKPKTNLNINSSRVQYGFNARIDMQYEDDSGTRKGSRPNAFMSNTVAFIGNYEGIIVDDIPILDGLRADIFDTHGDLDMGLVEDALSKSTMIRRNVPTYTAYASELLYKRNLTSLFYNMLRLYYIKKWGSIKYEKDAIFYDNGHACLLNRQLFPKSRDASLESSLSLPEAEIAMLDPGLEFPEEDVPAILWHGRVSSRATCILGQACSEFAPLAPFSIAHYSPQLTRKLFVNAPAGIEPSSGRYTHEDVKDAITILVSANQAYTDFEAAYLMLAQTLVSPVPRTAEASAWFINAGMVNMPTLSCANGYYPALTNVNPYHRLDTWKDTLNHWVAYPDMLFYHSVAMIESCYVELGNVARVSDSDAINKYTFTELSVQGRPVMNRGIIVDLTLVAMRTGREISLPYPVSCGLTRTDALLQGTEIHVPVVVKD", "Curing (%) of ScVLa": 100},
      {"binder": "La Cap fragment of pGLa1d8 (aa 98-443) (other) LSKSTMIRRNVPTYTAYASELLYKRNLTSLFYNMLRLYYIKKWGSIKYEKDAIFYDNGHACLLNRQLFPKSRDASLESSLSLPEAEIAMLDPGLEFPEEDVPAILWHGRVSSRATCILGQACSEFAPLAPFSIAHYSPQLTRKLFVNAPAGIEPSSGRYTHEDVKDAITILVSANQAYTDFEAAYLMLAQTLVSPVPRTAEASAWFINAGMVNMPTLSCANGYYPALTNVNPYHRLDTWKDTLNHWVAYPDMLFYHSVAMIESCYVELGNVARVSDSDAINKYTFTELSVQGRPVMNRGIIVDLTLVAMRTGREISLPYPVSCGLTRTDALLQGTEIHVPVVVKDI", "Curing (%) of ScVLa": "< 10"},
      {"binder": "MSSLLNSLLP", "note": "[La Cap N-terminal fragment of nonsense mutant pGLa1m6 (E11O, aa 1-10)]", "Curing (%) of ScVLa": "< 10"},
      {"binder": "La Cap N-terminal fragment of pGLa1d5 (aa 1-418) (other) MSSLLNSLLPEYFKPKTNLNINSSRVQYGFNARIDMQYEDDSGTRKGSRPNAFMSNTVAFIGNYEGIIVDDIPILDGLRADIFDTHGDLDMGLVEDALSKSTMIRRNVPTYTAYASELLYKRNLTSLFYNMLRLYYIKKWGSIKYEKDAIFYDNGHACLLNRQLFPKSRDASLESSLSLPEAEIAMLDPGLEFPEEDVPAILWHGRVSSRATCILGQACSEFAPLAPFSIAHYSPQLTRKLFVNAPAGIEPSSGRYTHEDVKDAITILVSANQAYTDFEAAYLMLAQTLVSPVPRTAEASAWFINAGMVNMPTLSCANGYYPALTNVNPYHRLDTWKDTLNHWVAYPDMLFYHSVAMIESCYVELGNVARVSDSDAINKYTFTELSVQGRPVMNRGIIVDLTLVAMRTGREISLPYPV", "Curing (%) of ScVLa": "< 10"},
      {"binder": "La Cap N-terminal fragment of nonsense mutant pGLa1m5 (S419O, aa 1-418) (other) MSSLLNSLLPEYFKPKTNLNINSSRVQYGFNARIDMQYEDDSGTRKGSRPNAFMSNTVAFIGNYEGIIVDDIPILDGLRADIFDTHGDLDMGLVEDALSKSTMIRRNVPTYTAYASELLYKRNLTSLFYNMLRLYYIKKWGSIKYEKDAIFYDNGHACLLNRQLFPKSRDASLESSLSLPEAEIAMLDPGLEFPEEDVPAILWHGRVSSRATCILGQACSEFAPLAPFSIAHYSPQLTRKLFVNAPAGIEPSSGRYTHEDVKDAITILVSANQAYTDFEAAYLMLAQTLVSPVPRTAEASAWFINAGMVNMPTLSCANGYYPALTNVNPYHRLDTWKDTLNHWVAYPDMLFYHSVAMIESCYVELGNVARVSDSDAINKYTFTELSVQGRPVMNRGIIVDLTLVAMRTGREISLPYPV", "Curing (%) of ScVLa": "< 10"},
      {"binder": "La Cap N-terminal fragment of pGLa1d6 (aa 1-401) (other) MSSLLNSLLPEYFKPKTNLNINSSRVQYGFNARIDMQYEDDSGTRKGSRPNAFMSNTVAFIGNYEGIIVDDIPILDGLRADIFDTHGDLDMGLVEDALSKSTMIRRNVPTYTAYASELLYKRNLTSLFYNMLRLYYIKKWGSIKYEKDAIFYDNGHACLLNRQLFPKSRDASLESSLSLPEAEIAMLDPGLEFPEEDVPAILWHGRVSSRATCILGQACSEFAPLAPFSIAHYSPQLTRKLFVNAPAGIEPSSGRYTHEDVKDAITILVSANQAYTDFEAAYLMLAQTLVSPVPRTAEASAWFINAGMVNMPTLSCANGYYPALTNVNPYHRLDTWKDTLNHWVAYPDMLFYHSVAMIESCYVELGNVARVSDSDAINKYTFTELSVQGRPVMNRGIIVDL", "Curing (%) of ScVLa": "< 10"},
      {"binder": "La Cap N-terminal fragment of nonsense mutant pGLa1m3 (K506O, aa 1-505) (other) MSSLLNSLLPEYFKPKTNLNINSSRVQYGFNARIDMQYEDDSGTRKGSRPNAFMSNTVAFIGNYEGIIVDDIPILDGLRADIFDTHGDLDMGLVEDALSKSTMIRRNVPTYTAYASELLYKRNLTSLFYNMLRLYYIKKWGSIKYEKDAIFYDNGHACLLNRQLFPKSRDASLESSLSLPEAEIAMLDPGLEFPEEDVPAILWHGRVSSRATCILGQACSEFAPLAPFSIAHYSPQLTRKLFVNAPAGIEPSSGRYTHEDVKDAITILVSANQAYTDFEAAYLMLAQTLVSPVPRTAEASAWFINAGMVNMPTLSCANGYYPALTNVNPYHRLDTWKDTLNHWVAYPDMLFYHSVAMIESCYVELGNVARVSDSDAINKYTFTELSVQGRPVMNRGIIVDLTLVAMRTGREISLPYPVSCGLTRTDALLQGTEIHVPVVVKDIDMPQYYNAIDKDVIEGQETVIKVKQLPPAMYPIYTYGINTTEFYSDHFEDQVQVEMAPIDNG", "Curing (%) of ScVLa": 100},
      {"binder": "La Cap fragment of pGLa1d7 (aa 6-443) (other) NSLLPEYFKPKTNLNINSSRVQYGFNARIDMQYEDDSGTRKGSRPNAFMSNTVAFIGNYEGIIVDDIPILDGLRADIFDTHGDLDMGLVEDALSKSTMIRRNVPTYTAYASELLYKRNLTSLFYNMLRLYYIKKWGSIKYEKDAIFYDNGHACLLNRQLFPKSRDASLESSLSLPEAEIAMLDPGLEFPEEDVPAILWHGRVSSRATCILGQACSEFAPLAPFSIAHYSPQLTRKLFVNAPAGIEPSSGRYTHEDVKDAITILVSANQAYTDFEAAYLMLAQTLVSPVPRTAEASAWFINAGMVNMPTLSCANGYYPALTNVNPYHRLDTWKDTLNHWVAYPDMLFYHSVAMIESCYVELGNVARVSDSDAINKYTFTELSVQGRPVMNRGIIVDLTLVAMRTGREISLPYPVSCGLTRTDALLQGTEIHVPVVVKDI", "Curing (%) of ScVLa": "< 10"},
      {"binder": "La Cap N-terminal fragment of pGLa1d2 (aa 1-476) (other) MSSLLNSLLPEYFKPKTNLNINSSRVQYGFNARIDMQYEDDSGTRKGSRPNAFMSNTVAFIGNYEGIIVDDIPILDGLRADIFDTHGDLDMGLVEDALSKSTMIRRNVPTYTAYASELLYKRNLTSLFYNMLRLYYIKKWGSIKYEKDAIFYDNGHACLLNRQLFPKSRDASLESSLSLPEAEIAMLDPGLEFPEEDVPAILWHGRVSSRATCILGQACSEFAPLAPFSIAHYSPQLTRKLFVNAPAGIEPSSGRYTHEDVKDAITILVSANQAYTDFEAAYLMLAQTLVSPVPRTAEASAWFINAGMVNMPTLSCANGYYPALTNVNPYHRLDTWKDTLNHWVAYPDMLFYHSVAMIESCYVELGNVARVSDSDAINKYTFTELSVQGRPVMNRGIIVDLTLVAMRTGREISLPYPVSCGLTRTDALLQGTEIHVPVVVKDIDMPQYYNAIDKDVIEGQETVIKVKQLPPAMYPI", "Curing (%) of ScVLa": 100},
      {"binder": "La Cap N-terminal fragment of pGLa1d1 (aa 1-502) (other) MSSLLNSLLPEYFKPKTNLNINSSRVQYGFNARIDMQYEDDSGTRKGSRPNAFMSNTVAFIGNYEGIIVDDIPILDGLRADIFDTHGDLDMGLVEDALSKSTMIRRNVPTYTAYASELLYKRNLTSLFYNMLRLYYIKKWGSIKYEKDAIFYDNGHACLLNRQLFPKSRDASLESSLSLPEAEIAMLDPGLEFPEEDVPAILWHGRVSSRATCILGQACSEFAPLAPFSIAHYSPQLTRKLFVNAPAGIEPSSGRYTHEDVKDAITILVSANQAYTDFEAAYLMLAQTLVSPVPRTAEASAWFINAGMVNMPTLSCANGYYPALTNVNPYHRLDTWKDTLNHWVAYPDMLFYHSVAMIESCYVELGNVARVSDSDAINKYTFTELSVQGRPVMNRGIIVDLTLVAMRTGREISLPYPVSCGLTRTDALLQGTEIHVPVVVKDIDMPQYYNAIDKDVIEGQETVIKVKQLPPAMYPIYTYGINTTEFYSDHFEDQVQVEMAPI", "Curing (%) of ScVLa": 100}
    ]}
  ]
}
